From US20230279091A1 (published 2023)

B1: recombinant human TNFβ (ligand, UniProt P01374 35-205, looked up)
chain: LPGVGLTPSAAQTARQHPKMHLAHSTLKPAAHLIGDPSKQNSLLWRANTDRAFLQDGFSLSNNSLLVPTSGIYFVYSQVVFSGKAYSPKATSSPLYLAHEVQLFSSQYPFHVPLLSSQKMVYPGLQEPWLHSMYHGAAFQLTQGDQLSTHTDGIPHLVLSPSTVFFGAFAL
B2: humanized scFv 16-22-H05-sc02 (STR, structural graft) (scFv)
scFv: MDIQMTQSPSSLSASVGDRVTIKCQASQSIFSGLAWYQQKPGKAPKLLIYGASKLASGVPSRFSGSGSGTEFTLTISGLQPADFATYYCQSYYYSSSSSDGSYAFGGGTKLTVLGGGGGSGGGGSGGGGSGGGGSEVQLVESGGGLVQPGGSLRLSCKASGIDFNNYGIGWVRQAPGKGLEWITYIYPGFAITNFANSVKGRFTISSDNSKNTVYLQMNSLRAEDTAVYYCARDPVYATSSGYFDLWGQGTLVTVSS
notes: also called 16-22-H5-sc02; 16-22-H04-sc02 [sic]
B3: humanized scFv 16-22-H05-sc04 (CDR/STR) (scFv)
scFv: MDIQMTQSPSSLSASVGDRVTITCQASQSIFSGLAWYQQKPGKAPKLLIYGASKLASGVPSRFSGSGSGTEFTLTISGLQPADFATYYCQSYYYSSSSSDGSYAFGGGTKLTVLGGGGGSGGGGSGGGGSGGGGSEVQLVESGGGLVQPGGSLRLSCKASGIDFNNYGIGWVRQAPGKGLEWITYIYPGFAITNFANSVKGRFTISSDNSKNTVYLQMNSLRAEDTAVYYCARDPVYATSSGYFDLWGQGTLVTVSS
notes: also called 16-22-05-sc04

What was measured:
[1] = molecular target: B2; assay: competition ELISA: unlabeled TNFβ against biotinylated TNFα on coated scFv
Procedure: (§1) For this purpose, the scFvs were coated on a 96-well Maxisorp ELISA plate at a concentration of 1 pg/ml. […] To control precision of the response, the dose-response curves were analyzed in duplicate.

[2] = molecular target: B3; assay: as above
Procedure: as §1

recombinant human TNFα [3] = molecular target: T1, recombinant human TNFα (human, UniProt P01375 77-233); assay: cell-based or functional assay
recombinant human TNFα [4] = molecular target: T1, recombinant human TNFα; assay: inhibition ELISA, blocking of biotinylated TNFα binding to coated TNFRI-Fc
Text: For the first inhibition ELISA, the extracellular domain of TNFRI fused to the Fc region of human IgG (R&D Systems, Cat. No. 372-RI) was coated on a 96-well Maxisorp ELISA at a concentration of 0.5 pg/ml. […] All subsequent steps were identical for both assays.

T1 sequence (P01375 77-233 limits assumed): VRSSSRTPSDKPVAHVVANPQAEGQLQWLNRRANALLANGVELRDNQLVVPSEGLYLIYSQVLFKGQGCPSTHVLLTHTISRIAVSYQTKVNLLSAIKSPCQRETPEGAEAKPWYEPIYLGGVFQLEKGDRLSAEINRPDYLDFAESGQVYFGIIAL

| Binder | IC50 [1] [ng/mL] | IC50 [2] [ng/mL] | L929 assay, rel. IC50 (recombinant human TNFα [3]) | L929 assay, rel. IC90 (recombinant human TNFα [3]) | rel. IC50 (IC50 Infliximab/IC50 scFv, ng/mL) (recombinant human TNFα [4]) [ratio] | rel. IC90 (IC90 Infliximab/IC90 scFv, ng/mL) (recombinant human TNFα [4]) [ratio] |
| --- | --- | --- | --- | --- | --- | --- |
| B1 | > 1.25 | > 1.25 |  |  |  |  |
| B2 |  |  | 13.1 ratio IC50 Infliximab (ng/ml)/IC50 scFv (ng/mL) | 12.6 ratio IC90 Infliximab (ng/ml)/IC90 scFv (ng/mL) | 3.5 | 2.4 |
| B3 |  |  | 14.6 ratio IC50 Infliximab (ng/ml)/IC50 scFv (ng/mL) | 13.1 ratio IC90 Infliximab (ng/ml)/IC90 scFv (ng/mL) | 2.8 | 2.1 |
